The record followed here is patent US20050287527A1, “Quantitative ranking of transient ligand binding to target biomolecules” (National Research Council of Canada, priority 2002, published 2005).

For test [1], the target named is human α-thrombin (human), P00734. The test can be described thus: 15N CPMG NMR relaxation dispersion of thrombin-cleaved FD22, two-site fit, highest thrombin:ligand ratio; Arg47; FD22-C present; 288 K.
For test [2] the target is unchanged. The test can be described thus: 15N CPMG NMR relaxation dispersion of thrombin-cleaved FD22, two-site fit at the highest thrombin concentration; Arg47; FD22-C present; 288 K.
For test [3], the target named is human prothrombin (human), P00734. Description: 15N CPMG NMR relaxation dispersion, two-site fit; Glu57; 288 K.
Test [4] has the same target. Description: 15N CPMG NMR relaxation dispersion, two-site fit; Glu58; 288 K.
The target is the same in test [5]. The test can be described thus: 15N CPMG NMR relaxation dispersion, two-site fit; Glu62; 288 K.
For test [6] the target is unchanged. Description: 15N CPMG NMR relaxation dispersion, two-site fit; Ile59; 288 K.
Test [7] shares this target. Description: 15N CPMG NMR relaxation dispersion, two-site fit; Phe56; 288 K.
Test [8] has the same target. Description: 15N CPMG NMR relaxation dispersion, two-site fit; Tyr63; 288 K.
The target is the same in test [9]. The test can be described thus: 15N CPMG NMR relaxation dispersion, linear three-site fit of Glu57; 298 K.
Test [10] shares this target. The test can be described thus: 15N CPMG NMR relaxation dispersion, full three-site fit of eighteen curves; 298 K.
The target is the same in test [11]. Description: 15N CPMG NMR relaxation dispersion, linear three-site fit of eighteen curves; 298 K.

By koff is commonly meant a measure of how fast the partners let go of each other. A low value points to a long-lived complex. For FDPR (modifications not checked) [FD22-N], the pb (apparent fraction of the bound peptide) in test [1] came to 3.2%. This molecule also came in with a koff in [2] of 310 s⁻¹.
As for GDFEEIPEEYLQ (modifications not checked) [Hir(54-65)], the pb (apparent fraction of the bound peptide) in test [3] was determined as 4.9%; in [4] it was 6.5%; in test [5] it was 6.9%; in [6], 6%; in test [7] it was 4.5%; in test [8] it was 6.7%.
Consider DFEEIPEEYLQ (not fully specified; modifications not checked) [N-acetyl-Hir(55-65)], for which, in test [9], the pb1 (population of the dissociation-competent bound state) turned out to be 1.3%, the pb2 (population of the second bound state) came to 4% and the pb=pb1+pb2 (total bound population) is 5.3%. For the same molecule, in [10], the pb1 (population of the first bound state) came out at 1.45%, the pb2 (population of the second bound state) turned out to be 1.5% and the pb (total bound population) came to 3%. In test [11], this molecule registered a pb1 (population of the first bound state) of 2.3%, a pb2 (population of the second bound state) of 1% and a pb (total bound population) of 3.35%.
